According to paper PMC5173032, “A plasma proteolysis pathway comprising blood coagulation proteases” (Oncotarget, 2016):

T1: 153T-172Rdel-FXII (human, UniProt P00748 20-615, 153T-172Rdel)
T1 construct: signal peptide in the construct; source: CHO-K1, transfected (pCMV6-XL5), purified from cell lysate (Ni-NTA agarose); not shown: His6, C-terminal, kept
T1 sequence (looked up): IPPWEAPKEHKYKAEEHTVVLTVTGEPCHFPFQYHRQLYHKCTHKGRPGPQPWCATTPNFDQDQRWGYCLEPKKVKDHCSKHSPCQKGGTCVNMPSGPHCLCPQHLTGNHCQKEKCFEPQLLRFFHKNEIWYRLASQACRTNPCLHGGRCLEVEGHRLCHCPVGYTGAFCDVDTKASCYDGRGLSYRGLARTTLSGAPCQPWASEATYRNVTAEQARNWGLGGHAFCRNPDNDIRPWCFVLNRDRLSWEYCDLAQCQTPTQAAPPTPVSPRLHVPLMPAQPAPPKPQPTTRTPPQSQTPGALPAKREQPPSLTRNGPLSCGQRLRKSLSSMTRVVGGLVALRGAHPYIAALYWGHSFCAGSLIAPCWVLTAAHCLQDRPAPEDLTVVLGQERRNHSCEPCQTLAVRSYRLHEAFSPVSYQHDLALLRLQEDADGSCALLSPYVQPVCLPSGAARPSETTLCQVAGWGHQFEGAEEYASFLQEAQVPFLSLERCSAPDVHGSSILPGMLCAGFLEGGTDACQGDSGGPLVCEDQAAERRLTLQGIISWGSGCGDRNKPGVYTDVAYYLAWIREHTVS

T2: 20I-50Pdel-FXII (human, UniProt P00748 20-615, 20I-50Pdel)
T2 construct: signal peptide in the construct; source: CHO-K1, transfected (pCMV6-XL5), purified from cell lysate (Ni-NTA agarose); not shown: His6, C-terminal, kept
T2 sequence (looked up): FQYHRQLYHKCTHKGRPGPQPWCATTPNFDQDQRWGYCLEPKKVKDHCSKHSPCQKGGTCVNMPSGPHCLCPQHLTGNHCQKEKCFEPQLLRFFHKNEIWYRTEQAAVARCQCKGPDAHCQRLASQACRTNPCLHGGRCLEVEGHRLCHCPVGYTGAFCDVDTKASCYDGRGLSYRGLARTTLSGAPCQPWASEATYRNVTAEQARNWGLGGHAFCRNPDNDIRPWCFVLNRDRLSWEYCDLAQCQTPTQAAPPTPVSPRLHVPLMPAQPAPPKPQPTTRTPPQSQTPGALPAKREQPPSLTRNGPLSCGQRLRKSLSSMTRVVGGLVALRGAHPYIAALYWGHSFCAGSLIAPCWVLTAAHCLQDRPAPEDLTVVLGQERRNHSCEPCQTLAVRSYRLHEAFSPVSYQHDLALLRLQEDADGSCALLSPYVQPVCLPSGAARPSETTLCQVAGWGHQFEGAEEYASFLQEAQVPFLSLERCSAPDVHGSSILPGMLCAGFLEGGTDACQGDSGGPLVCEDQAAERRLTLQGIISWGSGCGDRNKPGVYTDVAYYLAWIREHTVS

B1: recombinant human prolidase (peptidase D, PEPD) (enzyme, UniProt P12955 1-493, looked up)
chain: MAAATGPSFWLGNETLKVPLALFALNRQRLCERLRKNPAVQAGSIVVLQGGEETQRYCTDTGVLFRQESFFHWAFGVTEPGCYGVIDVDTGKSTLFVPRLPASHATWMGKIHSKEHFKEKYAVDDVQYVDEIASVLTSQKPSVLLTLRGVNTDSGSVCREASFDGISKFEVNNTILHPEIVECRVFKTDMELEVLRYTNKISSEAHREVMKAVKVGMKEYELESLFEHYCYSRGGMRHSSYTCICGSGENSAVLHYGHAGAPNDRTIQNGDMCLFDMGGEYYCFASDITCSFPANGKFTADQKAVYEAVLRSSRAVMGAMKPGVWWPDMHRLADRIHLEELAHMGILSGSVDAMVQAHLGAVFMPHGLGHFLGIDVHDVGGYPEGVERIDEPGLRSLRTARHLQPGMVLTVEPGIYFIDHLLDEALADPARASFLNREVLQRFRGFGGVRIEEDVVVTDSGIELLTCVPRTVEEIEACMAGCDKAFTPFSGPK
notes: human prolidase (peptidase D); also called hPEPD; source: recombinant, generated, purified and characterized as recently reported [7, 11]; not shown: His6, C-terminal, kept
B2: recombinant human FXII with 6XHis C-terminal tag (natural protein, UniProt P00748 20-615, looked up)
chain: IPPWEAPKEHKYKAEEHTVVLTVTGEPCHFPFQYHRQLYHKCTHKGRPGPQPWCATTPNFDQDQRWGYCLEPKKVKDHCSKHSPCQKGGTCVNMPSGPHCLCPQHLTGNHCQKEKCFEPQLLRFFHKNEIWYRTEQAAVARCQCKGPDAHCQRLASQACRTNPCLHGGRCLEVEGHRLCHCPVGYTGAFCDVDTKASCYDGRGLSYRGLARTTLSGAPCQPWASEATYRNVTAEQARNWGLGGHAFCRNPDNDIRPWCFVLNRDRLSWEYCDLAQCQTPTQAAPPTPVSPRLHVPLMPAQPAPPKPQPTTRTPPQSQTPGALPAKREQPPSLTRNGPLSCGQRLRKSLSSMTRVVGGLVALRGAHPYIAALYWGHSFCAGSLIAPCWVLTAAHCLQDRPAPEDLTVVLGQERRNHSCEPCQTLAVRSYRLHEAFSPVSYQHDLALLRLQEDADGSCALLSPYVQPVCLPSGAARPSETTLCQVAGWGHQFEGAEEYASFLQEAQVPFLSLERCSAPDVHGSSILPGMLCAGFLEGGTDACQGDSGGPLVCEDQAAERRLTLQGIISWGSGCGDRNKPGVYTDVAYYLAWIREHTVS
notes: signal peptide in the construct; also called factor XII; source: CHO-K1, transfected (pCMV6-XL5), purified from cell lysate (Ni-NTA agarose); not shown: His6, C-terminal, kept

Legend:
Conditions in all cases: both partners purified
153T-172Rdel-FXII = biological target: T1, 153T-172Rdel-FXII; test: co-IP; purified proteins: hPEPD, an hPEPD mutant or mSRC at 40 nM incubated with a coagulation factor, FXII or an FXII mutant at 0.5 μM in PBS, 100 μl, 2 h at 37°C; then a specific primary antibody at 4°C overnight, IP by protein G-agarose, IB
[1] = biological target: B2; test: as above
20I-50Pdel-FXII = biological target: T2, 20I-50Pdel-FXII; test: as above
human amyloid β1-42 = biological target: T3, human amyloid β1-42 (human, UniProt P05067 672-713); test: co-sedimentation; hAβ1-42 (200 nM) incubated with FXII or a mutant (20 nM) in PBS, 100 μl, 2 h at RT; Aβ1-42 aggregated; low-speed centrifugation; precipitates re-dissolved in 2% SDS and analysed with the supernatants by IB
T3 construct: amyloid β1-42, the peptide cut by secretases from the human Aβ precursor protein; numbers count on: the peptide; also called hAβ1-42; Aβ1-42; source: bought: Sigma-Aldrich (A9810)

Row | binding result (153T-172Rdel-FXII) | binding result [1] | binding result (20I-50Pdel-FXII) | binding result (human amyloid β1-42) | Binder
1 | binds | binds | binds | – | B1
2 | – | – | – | binds | B2
